Measurements reported in patent US12269859B2, “Synthetic immune receptors and methods of use thereof” (Angeles Therapeutics, Inc., priority 2016, dated 2025).

B1: 031517-Q04 (protein)
chain: MALPVTALLLPLALLLHAARPLEGKPIPNPLLGLDSTGSGEDLKNVFPPEVAVFEPSKAEIAHTQKATLVCLATGFYPDHVELSWWVNGKEVHSGVCTDPQPLKEQPALNDSRYCLSSRLRVSATFWQNPRNHFRCQVQFYGLSENDEWTQDRAKPVTQIVSAEAWGRADCGITSASYHQGVLSATILYEILLGKATLYAVLVSALVLMAMVKRKDSRGRAKRSGSGATNFSLLKQAGDVEENPGPTSMALPVTALLLPLALLLHAARPQSVVTQPASVSGSPGQSITISCTGTSSDVGGYNYVSWYQQHPGKAPKLMIYDVSKRPSGVSNRFSGSKSGNTASLTISGLQAEDEADYYCSSYTSSSTLVFGGGTKLTVLGGGGGSGGGGSGGGGSEVQLVESGGAFVQPGGSLRLSCAASGFTFSSYAMTWVRQAPGKGLEWVSTISGRGRSTFYADSVKGRFTISRDNSKNTLYLQMNSLRAEDTAVYYCARYYHAGAFDLWGQGTLVTVSSTREQKLISEEDGSGIQNPDPAVYQLRDSKSSDKSVCLFTDFDSQTNVSQSKDSDVYITDKCVLDMRSMDFKSNSAVAWSNKSDFACANAFNNSIIPEDTFFPSSDVPCDVKLVEKSFETDTNLNFQNLSVIGFRILLLKVAGFNLLMTLRLWSSRAKRSGSGVKQTLNFDLLKLAGDVESNPGPSRGHMTEYKPTVRLATRDDVPRAVRTLAAAFADYPATRHTVDPDRHIERVTELQELFLTRVGLDIGKVWVADDGAAVAVWTTPESVEAGAVFAEIGPRMAELSGSRLAAQQQMEGLLAPHRPKEPAWFLATVGVSPDHQGKGLGSAVVLPGVEAAERAGVPAFLETSAPRNLPFYERLGFTVTADVEVPEGPRTWCMTRKPGA
B2: 021517-I01 (protein)
chain: MALPVTALLLPLALLLHAARPLEGKPIPNPLLGLDSTGSGEDLKNVFPPEVAVFEPSKAEIAHTQKATLVCLATGFYPDHVELSWWVNGKEVHSGVCTDPQPLKEQPALNDSRYCLSSRLRVSATFWQNPRNHFRCQVQFYGLSENDEWTQDRAKPVTQIVSAEAWGRADCGITSASYHQGVLSATILYEILLGKATLYAVLVSALVLMAMVKRKDSRGRAKRSGSGATNFSLLKQAGDVEENPGPTSMALPVTALLLPLALLLHAARPQSVVTQPPSVSGAPGQRVTISCTGSSSNIGAGYDVHWYQQLPGTAPKLLIYGNSNRPSGVPDRFSGSKSGTSASLAITGLQAEDEADYYCQSYDSSLSGSYVFGTGTKLTVLGGGGGSGGGGSGGGGSEVQLVETGGNLVQPGASLRLSCAASGFSFSGTAMHWVRQAPGKGLEWVSTISSTGRSTYYRDSVKGRFTISRDNSKNTLYLQMNSLRGEDTAVYYCARVSFDYWGQGTLVTVSSTREQKLISEEDGSGIQNPDPAVYQLRDSKSSDKSVCLFTDFDSQTNVSQSKDSDVYITDKCVLDMRSMDFKSNSAVAWSNKSDFACANAFNNSIIPEDTFFPSSDVPCDVKLVEKSFETDTNLNFQNLSVIGFRILLLKVAGFNLLMTLRLWSSRAKRSGSGVKQTLNFDLLKLAGDVESNPGPSRGHMTEYKPTVRLATRDDVPRAVRTLAAAFADYPATRHTVDPDRHIERVTELQELFLTRVGLDIGKVWVADDGAAVAVWTTPESVEAGAVFAEIGPRMAELSGSRLAAQQQMEGLLAPHRPKEPAWFLATVGVSPDHQGKGLGSAVVLPGVEAAERAGVPAFLETSAPRNLPFYERLGFTVTADVEVPEGPRTWCMTRKPGA
B3: 101216-Y07 (protein)
chain: MALPVTALLLPLALLLHAARPDIQMTQSPSSLSASVGDRVTITCRASQGISSWLAWYQQKPEKAPKSLIYAASSLQSGVPSRFSGSGSGTDFTLTISSLQPEDFATYYCQQYNSYPPTFGGGTKVEIKLEGKPIPNPLLGLDSTGSGEDLKNVFPPEVAVFEPSKAEIAHTQKATLVCLATGFYPDHVELSWWVNGKEVHSGVCTDPQPLKEQPALNDSRYCLSSRLRVSATFWQNPRNHFRCQVQFYGLSENDEWTQDRAKPVTQIVSAEAWGRADCGITSASYHQGVLSATILYEILLGKATLYAVLVSALVLMAMVKRKDSRGRAKRSGSGATNFSLLKQAGDVEENPGPTSMDWIWRILFLVGAATGAHSFEEVQLVESGGGLVQPGESLRLSCVASGFTFSRYKMNWVRQAPGKGLEWVSYISRSGRDIYYADSVKGRFTISRDNAKNSLYLQMNSLRDEDTAVYYCAGTVTTYYYFGMDVWGHGTTVTVSSTREQKLISEEDGSGIQNPDPAVYQLRDSKSSDKSVCLFTDFDSQTNVSQSKDSDVYITDKCVLDMRSMDFKSNSAVAWSNKSDFACANAFNNSIIPEDTFFPSSDVPCDVKLVEKSFETDTNLNFQNLSVIGFRILLLKVAGFNLLMTLRLWSSRAKRSGSGVKQTLNFDLLKLAGDVESNPGPSRGHMTEYKPTVRLATRDDVPRAVRTLAAAFADYPATRHTVDPDRHIERVTELQELFLTRVGLDIGKVWVADDGAAVAVWTTPESVEAGAVFAEIGPRMAELSGSRLAAQQQMEGLLAPHRPKEPAWFLATVGVSPDHQGKGLGSAVVLPGVEAAERAGVPAFLETSAPRNLPFYERLGFTVTADVEVPEGPRTWCMTRKPGA
modifications: Synthetic Immune Receptor (SIR)
B4: 060717-L04 (protein)
chain: MALPVTALLLPLALLLHAARPQSVVTQPASVSGSPGQSITISCTGTSSDVGGYNYVSWYQQHPGKAPKLMIYDVSKRPSGVSNRFSGSKSGNTASLTISGLQAEDEADYYCSSYTSSSTLVFGGGTKLTVLGLEIQNPDPAVYQLRDSKSSDKSVCLFTDFDSQTNVSQSKDSDVYITDKCVLDMRSMDFKSNSAVAWSNKSDFACANAFNNSIIPEDTFFPSSDVPCDVKLVEKSFETDTNLNFQNLSVIGFRILLLKVAGFNLLMTLRLWSSRAKRSGSGVKQTLNFDLLKLAGDVESNPGPTSMDWIWRILFLVGAATGAHSFEEVQLVESGGAFVQPGGSLRLSCAASGFTFSSYAMTWVRQAPGKGLEWVSTISGRGRSTFYADSVKGRFTISRDNSKNTLYLQMNSLRAEDTAVYYCARYYHAGAFDLWGQGTLVTVSSTREDLKNVFPPEVAVFEPSKAEIAHTQKATLVCLATGFYPDHVELSWWVNGKEVHSGVCTDPQPLKEQPALNDSRYCLSSRLRVSATFWQNPRNHFRCQVQFYGLSENDEWTQDRAKPVTQIVSAEAWGRADCGITSASYHQGVLSATILYEILLGKATLYAVLVSALVLMAMVKRKDSRGRAKRSGSGATNFSLLKQAGDVEENPGPSRGHMTEYKPTVRLATRDDVPRAVRTLAAAFADYPATRHTVDPDRHIERVTELQELFLTRVGLDIGKVWVADDGAAVAVWTTPESVEAGAVFAEIGPRMAELSGSRLAAQQQMEGLLAPHRPKEPAWFLATVGVSPDHQGKGLGSAVVLPGVEAAERAGVPAFLETSAPRNLPFYERLGFTVTADVEVPEGPRTWCMTRKPGA

Tested on: target antigen-expressing cell line
Experiment: Jurkat NFAT-GFP assay, coculture with target cell lines expressing the respective target antigen (summary Table 10A)
Assay type: cell-based, human
Parameters: key: The signs +/−, +, 2+ etc. after the name of the cell lines indicate the relative degree of positivity on the Jurkat-NFAT-GFP assay as measured by the % GFP positive cells; +: relative degree of positivity on the Jurkat-NFAT-GFP assay as measured by the % GFP positive cells; 2+: relative degree of positivity on the Jurkat-NFAT-GFP assay as measured by the % GFP positive cells
Procedure, shortened: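 Jurkat cells carrying an NFAT-site IL-2 promoter driving GFP were lentivirally transduced with SIRs, puromycin-selected, then cocultured with antigen-expressing target cells at E:T about 1:2 for about 4–18 hours. GFP induction was read by flow cytometry as % GFP-positive cells versus parental Jurkat-NFAT-GFP.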

Molecule | NFAT-GFP ASSAY Positive Cell lines (coculture with L363 cells) | NFAT-GFP ASSAY Positive Cell lines (coculture with H460 cells) | NFAT-GFP ASSAY Positive Cell lines (coculture with HCT116 cells) | NFAT-GFP ASSAY Positive Cell lines (coculture with U266 cells)
B1 | L363 (+/−) |  |  | 
B2 | L363 (+/−) |  |  | 
B3 |  | H460 (+/−), HCT116 | (+/−) | 
B4 | 2+ |  |  | +
